Experimental data published in patent US20230151069A1, “Cyclic Peptides” (LIFEARC, priority 2020, published 2023).

What was measured:
[1] = tested on: 5XFAD mice; experiment: Active immunisation, plaque load by immunohistochemistry in 5XFAD brain sections; format: in vivo; settings: 5XFAD mouse cortex, FIG. 29
Procedure: 5XFAD mice were immunized with antigen [Thioacetal bridged amyloid-beta peptide 1-14—KLH conjugate; DAC*[…]*HH[Cys]-amide (*S—CH—S bridged, cyclised via positions 3 and 12)] as described previously.
Mice were sacrificed via CO2 anesthetization followed by cervical dislocation. Brain samples were carefully dissected and post-fixed in 4% phosphate-buffered formalin at 4° C. Human and mouse tissue samples were processed as previously described 4. In brief, 4 μm paraffin sections were deparaffinized in xylene, followed by rehydration in a series of ethanol. […] Non-specific binding sites were blocked by treatment with skim milk and fetal calf serum in PBS, prior to the addition of the primary antibodies. The following antibodies were used: polyclonal antibody 24311 against […], monoclonal antibody 1-57 against pyroglumatate Aβ3-X, (Synaptic Sytems, GOttingen, Germany; 1 mg/ml; 1:500), and TAP01_4 (1:200; 2 mg/ml). Corresponding biotinylated secondary anti-human and anti-mouse antibodies (1:200) were purchased from DAKO (Glostrup, Denmark). Staining was visualized using the ABC method, with a Vectastain kit (Vector Laboratories, Burlingame, USA) and diaminobenzidine (DAB) as chromogen. Counterstaining was carried out with hematoxylin.
Plaque load was quantified as previously described (G. Antonios et al., Alzheimer therapy with an antibody against N-terminal Abeta 4-X and pyroglutamate Abeta 3-X. Scientific reports 5, 17338 (2015)). 5-6 paraffin embedded sections, which were at least 80 μm afar from each other, were stained simultaneously with DAB as chromogen. For Thioflavin S fluorescent staining tissue sections were deparaffinized and rehydrated, washed twice in deionized water and then treated with 1% (w/v) ThioflavinS in aqueous solution and counterstained in a 1% (w/v) aqueous solution of 4′6-diamidin-2-phenylindol. The relative Aβ load was evaluated using an Olympus BX-51 microscope equipped with an Olympus DP-50 camera and the ImageJ software (NIH, USA). Representative pictures of 100× magnification were systematically captured. […]

[2] = tested on: 5XFAD mice; experiment: Active immunisation, 18F-Florbetaben-PET/MRI amyloid-plaque imaging in 5XFAD mice; format: in vivo, mouse; settings: immunized 5XFAD mice, cortex, hippocampus and amygdala
Procedure: 5XFAD mice were immunized at 6 weeks of age for 12 weeks with antigen [Thioacetal bridged amyloid-beta peptide 1-14—KLH conjugate; DAC*[…]*HH[Cys]-amide (*S—CH—S bridged, cyclised via positions 3 and 12)] emulsified in complete Freund's adjuvant (CFA), followed by booster doses of protein emulsified in incomplete Freund's adjuvant (IFA). Mice were acclimated at our facility for at least 7 days before immunization. Mice were injected with antigen emulsified in CFA subcutaneously at two sites on the back, injecting 0.05 to 0.1 mL at each site (total of 0.1 to 0.2 mL per mouse).
Booster injections of antigen emulsified in IFA was administered at day 14, day 28, day 42 and 10 weeks after immunization with antigen/CFA emulsion. The booster is given as a single subcutaneous injection with 0.1 mL of IFA emulsion, at one site on the back. […]
All images were analyzed using PMOD v3.9 (PMOD Technologies, Switzerland) as described before (Bouter et al). […] PET VOI statistics (kBq/cc) were generated for all brain areas and standardized uptake values (SUVs) were calculated [SUV=tissue activity concentration average (kBq/cc)×body weight (g)/injected dose (kBq)] for semi-quantitative analysis. SUVs of 18F-FDG-PET scans were corrected for measured blood glucose levels [SUVGIc=SUV x blood glucose level (mg/dl)]. […]

[3] = tested on: full-length amyloid-beta 1-42; experiment: Reactivity of antibodies induced by the cyclic peptide with full-length amyloid-beta; format: in vivo; settings: antibodies induced by immunisation
Procedure: • 1. Coat 384-well plate with 30 μL/well of 100 ng/ml PSL amyloid 1-42 peptide (Human-Peptide Specialty Laboratories-CEM1904161) diluted in carb/bicarb buffer • 2. Incubate at 37° C. for 1 hour • 3. Wash the plate (NUNC 384 program) • 4. […] Incubate at 4° C. overnight • 6. Wash the plate (NUNC 384 program) • 7. […] Transfer 30 μL/well onto the assay plate • 10. Incubate at 37° C. for 1 hour • 11. Wash the plate (NUNC 384 program) • 12. […] Incubate at 37° C. for 1 hour • 14. Wash the plate (NUNC 384 program) • 15. […] Incubate at RT for 10 min in the dark • 17. […] Coat 384-well plate with 30 μL/well of 100 ng/ml PSL amyloid pE3-42 peptide (Human-Peptide Specialty Laboratories-CEM062210 Pyr) diluted in carb/bicarb buffer • 2. Incubate at 37° C. for 1 hour • 3. Wash the plate (NUNC 384 program) • 4. […] Incubate at 4° C. overnight • 6. Wash the plate (NUNC 384 program) • 7. […] Transfer 30 μL/well onto the assay plate • 10. Incubate at 37° C. for 1 hour • 11. Wash the plate (NUNC 384 program) • 12. […] Incubate at 37° C. for 1 hour • 14. Wash the plate (NUNC 384 program) • 15. […] Incubate at RT for 10 min in the dark • 17.

In the case of “DAC*FRHDSGYEC*HH[Cys]-amide (*S—CH—S bridged, cyclised via positions 3 and 12)”, the “amyloid-plaque load in brain tissue (pan-Abeta, pyroglutamate Aβ3-X, Thioflavin S, N-truncated Aβ stainings)” value (from here on “amyloid-plaque load in brain tissue”) ([1]; listed as 3-12 linked Aβ1-14 cyclic peptide) was “reduction in amyloid-plaque load”, the “amyloid-plaque load in brain tissue” value ([1]; listed as cyclised Aβ peptides) was “strong reduction of plaques” and the “amyloid-plaque load in brain tissue” value ([1]; listed as cyclized Aβ peptide) was “significant reduction in plaque load”. The “amyloid-plaque signal (fluorbetaben retention)” value [2] was “drastically reduced” and the “reactivity of induced antibodies with full-length amyloid-beta 1-42” value [3] was “do not react”.
